The numbers were not newly measured in publication PMC3361719, which cites them from elsewhere.

The target of this data set is p67phox SH3 (Homo sapiens) (UniProt P19878).
UniProt P19878, sequence (P19878 457-516): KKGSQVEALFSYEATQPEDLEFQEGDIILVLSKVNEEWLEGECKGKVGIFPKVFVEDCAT

With “p47phox PRR and 368-390 (from UniProt P14598)”, the Kd is 20 nM.

Usually Kd stands for the free concentration of one partner at which half of the binding sites on the other are occupied at equilibrium, for simple one-to-one binding.
